Laboratory results from patent US20260167699A1 (Chugai, published 2026).

B1: GpH7-A5/GpH7-B3 variant N325_16H/GpL16-k0 (antibody, human IgG1, kappa)
heavy 1: not shown
heavy 2: not shown
light: DIVMTQSPLSLPVTPGEPASISCQASESLVHSNRNTYLHWYLQKPGQSPQLLIYKVSNRFSGVPDRFSGSGSGTDFTLKISRVEAEDVGVYYCSQNTHVPPTFGQGTKVEIERTVAAPSVFIFPPSDEQLKSGTASVVCLLNNFYPREAKVQWKVDNALQSGNSQESVTEQDSKDSTYSLSSTLTLSKADYEKHKVYACEVTHQGLSSPVTKSFNRGEC
notes: copies: 1 + 1 + 2
B2: GpH7-A5/GpH7-B3 variant P238_10E/GpL16-k0 (antibody, human IgG1, kappa)
heavy 1: not shown
heavy 2: not shown
light: DIVMTQSPLSLPVTPGEPASISCQASESLVHSNRNTYLHWYLQKPGQSPQLLIYKVSNRFSGVPDRFSGSGSGTDFTLKISRVEAEDVGVYYCSQNTHVPPTFGQGTKVEIERTVAAPSVFIFPPSDEQLKSGTASVVCLLNNFYPREAKVQWKVDNALQSGNSQESVTEQDSKDSTYSLSSTLTLSKADYEKHKVYACEVTHQGLSSPVTKSFNRGEC
notes: copies: 1 + 1 + 2
B3: GpH7-A5/GpH7-B3 variant P271_08L/GpL16-k0 (antibody, human IgG1, kappa)
heavy 1: not shown
heavy 2: not shown
light: DIVMTQSPLSLPVTPGEPASISCQASESLVHSNRNTYLHWYLQKPGQSPQLLIYKVSNRFSGVPDRFSGSGSGTDFTLKISRVEAEDVGVYYCSQNTHVPPTFGQGTKVEIERTVAAPSVFIFPPSDEQLKSGTASVVCLLNNFYPREAKVQWKVDNALQSGNSQESVTEQDSKDSTYSLSSTLTLSKADYEKHKVYACEVTHQGLSSPVTKSFNRGEC
notes: copies: 1 + 1 + 2
B4: GpH7-A5/GpH7-B3 variant P271_03V/GpL16-k0 (antibody, human IgG1, kappa)
heavy 1: not shown
heavy 2: not shown
light: DIVMTQSPLSLPVTPGEPASISCQASESLVHSNRNTYLHWYLQKPGQSPQLLIYKVSNRFSGVPDRFSGSGSGTDFTLKISRVEAEDVGVYYCSQNTHVPPTFGQGTKVEIERTVAAPSVFIFPPSDEQLKSGTASVVCLLNNFYPREAKVQWKVDNALQSGNSQESVTEQDSKDSTYSLSSTLTLSKADYEKHKVYACEVTHQGLSSPVTKSFNRGEC
notes: copies: 1 + 1 + 2
B5: GpH7-A5/GpH7-B3 variant P271_13S/GpL16-k0 (antibody, human IgG1, kappa)
heavy 1: not shown
heavy 2: not shown
light: DIVMTQSPLSLPVTPGEPASISCQASESLVHSNRNTYLHWYLQKPGQSPQLLIYKVSNRFSGVPDRFSGSGSGTDFTLKISRVEAEDVGVYYCSQNTHVPPTFGQGTKVEIERTVAAPSVFIFPPSDEQLKSGTASVVCLLNNFYPREAKVQWKVDNALQSGNSQESVTEQDSKDSTYSLSSTLTLSKADYEKHKVYACEVTHQGLSSPVTKSFNRGEC
notes: copies: 1 + 1 + 2
B6: GpH7-A5/GpH7-B3 variant P271_16H/GpL16-k0 (antibody, human IgG1, kappa)
heavy 1: not shown
heavy 2: not shown
light: DIVMTQSPLSLPVTPGEPASISCQASESLVHSNRNTYLHWYLQKPGQSPQLLIYKVSNRFSGVPDRFSGSGSGTDFTLKISRVEAEDVGVYYCSQNTHVPPTFGQGTKVEIERTVAAPSVFIFPPSDEQLKSGTASVVCLLNNFYPREAKVQWKVDNALQSGNSQESVTEQDSKDSTYSLSSTLTLSKADYEKHKVYACEVTHQGLSSPVTKSFNRGEC
notes: copies: 1 + 1 + 2
B7: GpH7-A5/GpH7-B3 variant P271_11K/GpL16-k0 (antibody, human IgG1, kappa)
heavy 1: not shown
heavy 2: not shown
light: DIVMTQSPLSLPVTPGEPASISCQASESLVHSNRNTYLHWYLQKPGQSPQLLIYKVSNRFSGVPDRFSGSGSGTDFTLKISRVEAEDVGVYYCSQNTHVPPTFGQGTKVEIERTVAAPSVFIFPPSDEQLKSGTASVVCLLNNFYPREAKVQWKVDNALQSGNSQESVTEQDSKDSTYSLSSTLTLSKADYEKHKVYACEVTHQGLSSPVTKSFNRGEC
notes: copies: 1 + 1 + 2
B8: GpH7-A5/GpH7-B3 variant P238_09D/GpL16-k0 (antibody, human IgG1, kappa)
heavy 1: not shown
heavy 2: not shown
light: DIVMTQSPLSLPVTPGEPASISCQASESLVHSNRNTYLHWYLQKPGQSPQLLIYKVSNRFSGVPDRFSGSGSGTDFTLKISRVEAEDVGVYYCSQNTHVPPTFGQGTKVEIERTVAAPSVFIFPPSDEQLKSGTASVVCLLNNFYPREAKVQWKVDNALQSGNSQESVTEQDSKDSTYSLSSTLTLSKADYEKHKVYACEVTHQGLSSPVTKSFNRGEC
notes: copies: 1 + 1 + 2
B9: GpH7-A5/GpH7-B3 variant P238_15Y/GpL16-k0 (antibody, human IgG1, kappa)
heavy 1: not shown
heavy 2: not shown
light: DIVMTQSPLSLPVTPGEPASISCQASESLVHSNRNTYLHWYLQKPGQSPQLLIYKVSNRFSGVPDRFSGSGSGTDFTLKISRVEAEDVGVYYCSQNTHVPPTFGQGTKVEIERTVAAPSVFIFPPSDEQLKSGTASVVCLLNNFYPREAKVQWKVDNALQSGNSQESVTEQDSKDSTYSLSSTLTLSKADYEKHKVYACEVTHQGLSSPVTKSFNRGEC
notes: copies: 1 + 1 + 2
B10: GpH7-A5/GpH7-B3 variant P271_04F/GpL16-k0 (antibody, human IgG1, kappa)
heavy 1: not shown
heavy 2: not shown
light: DIVMTQSPLSLPVTPGEPASISCQASESLVHSNRNTYLHWYLQKPGQSPQLLIYKVSNRFSGVPDRFSGSGSGTDFTLKISRVEAEDVGVYYCSQNTHVPPTFGQGTKVEIERTVAAPSVFIFPPSDEQLKSGTASVVCLLNNFYPREAKVQWKVDNALQSGNSQESVTEQDSKDSTYSLSSTLTLSKADYEKHKVYACEVTHQGLSSPVTKSFNRGEC
notes: copies: 1 + 1 + 2
B11: GpH7-A5/GpH7-B3 variant P271_06M/GpL16-k0 (antibody, human IgG1, kappa)
heavy 1: not shown
heavy 2: not shown
light: DIVMTQSPLSLPVTPGEPASISCQASESLVHSNRNTYLHWYLQKPGQSPQLLIYKVSNRFSGVPDRFSGSGSGTDFTLKISRVEAEDVGVYYCSQNTHVPPTFGQGTKVEIERTVAAPSVFIFPPSDEQLKSGTASVVCLLNNFYPREAKVQWKVDNALQSGNSQESVTEQDSKDSTYSLSSTLTLSKADYEKHKVYACEVTHQGLSSPVTKSFNRGEC
notes: copies: 1 + 1 + 2

Molecular target: T1, FcγRIIIa (human, UniProt P08637 17-208)
T1 construct: extracellular domain; also called 3a; FcγRIIIa extracellular domain
Assay: SPR (Biacore);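 also: antibody variants captured on an SPR sensor chip, with FcγRIIIa passed over as analyte in HBS-EP+ buffer at 25 °C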
Experimental: The antibody of interest was analyzed for its interaction with FcγR using a BiaCore™ T100, BiaCore™ A100, or BiaCore™ 4000 surface plasmon resonance system (GE Healthcare Japan Corp.). The running buffer used was HBS-EP+ (GE Healthcare Japan Corp.). The assay temperature was set to 25° C. The sensor chips used were: a chip prepared by immobilizing antigenic peptides onto Series S Sensor Chip CM5 (GE Healthcare Japan Corp.) by the amine coupling method; a chip prepared by immobilizing antigenic peptides biotinylated in advance onto Series S Sensor Chip SA (certified) (GE Healthcare Japan Corp.) through their interaction; a chip prepared by immobilizing protein L (ACTIGEN, BioVision, Inc.) onto Series S Sensor Chip CM5 (GE Healthcare Japan Corp.); and a chip prepared by immobilizing protein A/G (Thermo Fisher Scientific K.K.) onto Series S Sensor Chip CM5 (GE Healthcare Japan Corp.). The antibody of interest was captured onto any of these chips and allowed to interact with FcγR diluted with a running buffer. The antibody captured on the chip was washed off through the reaction of 10 mM glycine-HCl (pH 1.5) to regenerate the chip, which was repetitively used.

T1 sequence (P08637 other isoform, or with tags, fused parts or gaps): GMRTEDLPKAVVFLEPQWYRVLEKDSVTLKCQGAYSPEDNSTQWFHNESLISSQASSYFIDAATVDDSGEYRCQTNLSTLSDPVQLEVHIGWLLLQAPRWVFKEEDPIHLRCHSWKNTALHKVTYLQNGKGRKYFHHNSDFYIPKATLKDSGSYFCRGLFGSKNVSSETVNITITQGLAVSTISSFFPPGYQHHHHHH

In order of falling “He/Con 3a” value:
1. B8  100 % of GpH7-A5/GpH7-B3/GpL16-k0
2. B2  98.9 % of GpH7-A5/GpH7-B3/GpL16-k0
3. B7  92.5 % of GpH7-A5/GpH7-B3/GpL16-k0
4. B5  79.8 % of GpH7-A5/GpH7-B3/GpL16-k0
5. B3  74.5 % of GpH7-A5/GpH7-B3/GpL16-k0
6. B11  74 % of GpH7-A5/GpH7-B3/GpL16-k0
7. B4  73.5 % of GpH7-A5/GpH7-B3/GpL16-k0
8. B6  70.3 % of GpH7-A5/GpH7-B3/GpL16-k0
9. B1  68 % of GpH7-A5/GpH7-B3/GpL16-k0
10. B10  65.6 % of GpH7-A5/GpH7-B3/GpL16-k0
11. B9  61 % of GpH7-A5/GpH7-B3/GpL16-k0
